Laboratory results from article doi:10.1101/2023.08.29.555277.

Legend:
[1] = molecular target: F-actin (polymerised purified rabbit skeletal G-actin) (rabbit) (UniProt P68135); experiment: co-sedimentation
[2] = molecular target: microtubules polymerised from porcine Tubulin (porcine) (UniProt P02550); experiment: co-sedimentation
UniProt P02550, sequence (P02550 whole entry, looked up): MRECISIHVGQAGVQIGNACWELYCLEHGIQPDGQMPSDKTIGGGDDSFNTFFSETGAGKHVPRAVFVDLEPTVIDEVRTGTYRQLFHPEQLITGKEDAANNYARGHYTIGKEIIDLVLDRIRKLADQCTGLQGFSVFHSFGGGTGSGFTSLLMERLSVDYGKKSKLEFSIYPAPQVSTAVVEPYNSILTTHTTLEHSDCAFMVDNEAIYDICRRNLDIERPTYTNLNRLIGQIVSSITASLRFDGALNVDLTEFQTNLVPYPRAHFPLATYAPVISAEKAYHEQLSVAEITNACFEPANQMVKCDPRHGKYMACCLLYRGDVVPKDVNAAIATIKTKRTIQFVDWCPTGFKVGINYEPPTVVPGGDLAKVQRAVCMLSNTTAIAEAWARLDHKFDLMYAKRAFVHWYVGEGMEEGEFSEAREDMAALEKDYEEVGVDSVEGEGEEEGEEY

| Pellet/Supernatant with F-actin [1] | Substance | other results |
| --- | --- | --- |
| 1.6 | HTT Bridge domain tagged with GST (GST-B: 1887-2098 a.a.) (domain or fragment) | – |
| 1.57 | HTT fragment containing the Bridge to C_HEAT domains (B-C_HEAT; 1887 to 3144 a.a.) (domain or fragment) | – |

The next lines start with the substance.

| Substance | Pellet/Supernatant with F-actin [1] | other results |
| --- | --- | --- |
| endogenous HTT of mouse developing cortex (from UniProt P42859 1-3119) (natural protein) | – | amount of HTT in the pellet with microtubules [2]: 1.18 |
| endogenous HTT of mouse developing cortex, P42859 1-3119 | – | amount of HTT in the pellet with F-actin ([1]; remark: other sources report otherwise): 1.07 |
| purified human full-length (FL) wild-type HTT (23 glutamines) (from UniProt P42858 1-3142) (natural protein) | 1.05 | Kd [1]: 0.357 µM |
